# In US20260001953A1 (TWIST BIOSCIENCE, published 2026):
# T1: SIGLEC-5 (limits assumed)
# T1 construct: also called OB-BP-2
# T1 receptor: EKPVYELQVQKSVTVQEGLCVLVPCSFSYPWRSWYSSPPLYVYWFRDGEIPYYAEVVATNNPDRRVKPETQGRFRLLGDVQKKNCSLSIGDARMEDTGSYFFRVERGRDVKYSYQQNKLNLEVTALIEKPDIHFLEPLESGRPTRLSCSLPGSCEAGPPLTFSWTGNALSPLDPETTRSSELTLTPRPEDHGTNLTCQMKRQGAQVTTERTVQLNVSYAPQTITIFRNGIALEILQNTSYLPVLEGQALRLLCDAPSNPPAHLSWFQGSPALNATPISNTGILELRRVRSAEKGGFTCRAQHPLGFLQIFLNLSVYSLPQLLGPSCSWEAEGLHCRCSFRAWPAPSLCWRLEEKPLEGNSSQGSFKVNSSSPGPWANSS
# Legend:
# [1] = target: Sialic acid-binding immunoglobulin-like lectin 8 (SIGLEC-8), antigen of the Carterra SPR studies (UniProt Q9NYZ4 17-363, limits assumed); test: Carterra SPR
# Sialic acid-binding immunoglobulin-like lectin 8 (SIGLEC-8), antigen of the Carterra SPR studies, sequence (Q9NYZ4 17-363 limits assumed): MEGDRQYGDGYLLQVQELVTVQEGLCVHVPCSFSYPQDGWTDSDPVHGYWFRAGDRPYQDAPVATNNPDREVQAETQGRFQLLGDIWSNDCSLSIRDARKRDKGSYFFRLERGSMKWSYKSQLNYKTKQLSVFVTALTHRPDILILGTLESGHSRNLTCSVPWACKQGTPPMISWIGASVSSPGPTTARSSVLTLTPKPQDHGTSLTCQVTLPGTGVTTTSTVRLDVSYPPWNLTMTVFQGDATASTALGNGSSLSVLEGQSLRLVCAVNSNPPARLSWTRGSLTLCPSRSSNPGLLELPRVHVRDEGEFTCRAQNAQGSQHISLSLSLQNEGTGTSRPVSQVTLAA
# Summary of the method: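 Binding kinetics of antibodies to SIGLEC-8 were measured by surface plasmon resonance on a Carterra instrument. The antibodies came from synthetic antibody libraries panned over four rounds with a bead-based strategy and screened by clonal ELISA. Selected clones were expressed and purified before testing. The read-outs are rate constants, dissociation constants or results from these kinetic runs.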
# SIGLEC-2 = target: T2, SIGLEC-2; test: SPR cross-reactivity table
# T2 construct: also called CD22
# T2 sequence (chain, as listed by the source limits assumed): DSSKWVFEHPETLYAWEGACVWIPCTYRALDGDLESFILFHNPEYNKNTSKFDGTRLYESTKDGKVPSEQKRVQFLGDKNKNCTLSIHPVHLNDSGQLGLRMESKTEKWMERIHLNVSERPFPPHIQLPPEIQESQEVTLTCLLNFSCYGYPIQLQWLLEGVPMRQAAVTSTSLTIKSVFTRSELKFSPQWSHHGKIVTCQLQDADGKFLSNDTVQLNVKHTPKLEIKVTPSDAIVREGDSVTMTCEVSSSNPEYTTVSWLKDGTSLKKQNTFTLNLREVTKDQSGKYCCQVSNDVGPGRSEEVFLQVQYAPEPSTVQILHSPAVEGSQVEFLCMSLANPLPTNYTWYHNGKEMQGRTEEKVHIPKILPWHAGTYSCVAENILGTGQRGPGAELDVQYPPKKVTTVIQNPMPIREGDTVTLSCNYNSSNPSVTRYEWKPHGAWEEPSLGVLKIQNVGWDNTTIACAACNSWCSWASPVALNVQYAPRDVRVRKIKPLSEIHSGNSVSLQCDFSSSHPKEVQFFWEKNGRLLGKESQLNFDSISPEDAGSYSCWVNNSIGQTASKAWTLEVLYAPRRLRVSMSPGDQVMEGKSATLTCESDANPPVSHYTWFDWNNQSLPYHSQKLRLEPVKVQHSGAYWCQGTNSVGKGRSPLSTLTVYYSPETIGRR
# Summary of the method: (§1)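 Purified antibodies against SIGLEC-8, first selected from synthetic libraries by four rounds of bead-based panning, were tested for cross-reactivity with related SIGLEC proteins by surface plasmon resonance on a Carterra instrument. Each protein tested has a dissociation constant or a binding result listed.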
# SIGLEC-3 = target: T3, SIGLEC-3; test: SPR cross-reactivity table
# T3 construct: also called CD33
# T3 sequence (receptor, as listed by the source limits assumed): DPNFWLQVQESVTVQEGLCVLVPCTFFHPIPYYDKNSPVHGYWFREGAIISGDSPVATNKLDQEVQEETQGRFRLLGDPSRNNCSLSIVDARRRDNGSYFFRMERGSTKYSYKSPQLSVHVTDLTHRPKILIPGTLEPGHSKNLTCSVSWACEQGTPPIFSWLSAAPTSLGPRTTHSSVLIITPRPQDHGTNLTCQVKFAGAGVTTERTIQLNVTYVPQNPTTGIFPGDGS
# Summary of the method: as §1
# SIGLEC-5 = target: T1, SIGLEC-5; test: SPR cross-reactivity table
# Summary of the method: as §1
# SIGLEC-6 = target: T4, SIGLEC-6; test: SPR cross-reactivity table
# T4 construct: also called OB-BP-1
# T4 sequence (receptor, as listed by the source limits assumed): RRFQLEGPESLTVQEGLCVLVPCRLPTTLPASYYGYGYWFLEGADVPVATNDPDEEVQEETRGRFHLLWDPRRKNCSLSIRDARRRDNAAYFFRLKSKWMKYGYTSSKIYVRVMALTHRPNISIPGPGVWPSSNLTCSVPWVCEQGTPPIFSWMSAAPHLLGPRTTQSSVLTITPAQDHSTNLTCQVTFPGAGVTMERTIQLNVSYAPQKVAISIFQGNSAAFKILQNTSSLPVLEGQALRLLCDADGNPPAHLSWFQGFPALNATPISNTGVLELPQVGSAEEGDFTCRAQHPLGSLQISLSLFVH
# Summary of the method: as §1
# SIGLEC-7 = target: T5, SIGLEC-7; test: SPR cross-reactivity table
# T5 construct: also called p75/AIRM1
# T5 sequence (receptor, as listed by the source limits assumed): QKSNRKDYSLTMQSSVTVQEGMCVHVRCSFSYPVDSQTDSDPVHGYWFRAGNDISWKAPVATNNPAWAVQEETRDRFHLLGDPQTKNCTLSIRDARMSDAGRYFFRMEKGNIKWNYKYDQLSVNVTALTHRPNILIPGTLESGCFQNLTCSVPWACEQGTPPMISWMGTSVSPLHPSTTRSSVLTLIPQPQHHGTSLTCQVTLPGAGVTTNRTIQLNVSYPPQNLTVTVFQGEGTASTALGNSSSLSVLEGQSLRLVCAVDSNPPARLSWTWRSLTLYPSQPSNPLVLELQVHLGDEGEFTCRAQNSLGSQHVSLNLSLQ
# Summary of the method: as §1
# [2] = target: T6, SIGLEC-8 transiently expressed on cells (UniProt Q9NYZ4 17-499, limits assumed); test: cell binding titration, transient SIGLEC-8 line
# T6 construct: whole, on cells; Two cassettes are described (P2A mVenus and direct mVenus fusion); also called the transient line; pTT5-SIGLEC-8 P2A mVenus
# T6 sequence (Q9NYZ4 17-499 limits assumed): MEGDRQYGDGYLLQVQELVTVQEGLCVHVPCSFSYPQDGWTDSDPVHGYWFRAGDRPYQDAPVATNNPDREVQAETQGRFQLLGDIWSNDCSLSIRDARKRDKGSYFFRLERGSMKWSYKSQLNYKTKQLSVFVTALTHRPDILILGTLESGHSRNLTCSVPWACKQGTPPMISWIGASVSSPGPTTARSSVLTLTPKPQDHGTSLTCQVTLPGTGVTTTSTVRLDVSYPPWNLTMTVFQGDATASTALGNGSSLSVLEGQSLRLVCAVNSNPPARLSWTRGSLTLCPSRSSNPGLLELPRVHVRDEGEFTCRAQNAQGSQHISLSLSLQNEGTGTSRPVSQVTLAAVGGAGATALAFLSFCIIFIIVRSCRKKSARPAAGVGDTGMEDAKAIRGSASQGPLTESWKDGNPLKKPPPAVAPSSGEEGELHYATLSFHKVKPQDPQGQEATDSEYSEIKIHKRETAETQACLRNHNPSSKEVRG
Kd [1] [nM],Kd (SIGLEC-2) [nM],binding result (SIGLEC-3),binding result (SIGLEC-5),binding result (SIGLEC-6),binding result (SIGLEC-7),EC50 [2] [nM],binding result (SIGLEC-2),Kd (SIGLEC-5) [nM],Kd (SIGLEC-6) [nM],Kd (SIGLEC-3) [nM],Binder
8.89,836,no binding,no binding,no binding,no binding,1.25,,,,,"SIGLEC-8-17 (antibody, human IgG1, kappa, V domains shown, tested as expressed and purified mAb) VH: EVQLLESGGGLVQPGGSLRLSCAASGFPFSNYAMGWVRQAPGKGLEWVSGISASGSSTYYADSVKGRFTISRDNSKNTLYLQMNSLRAEDTAVYYCAREDSGKYLSLDYWGQGTLVTVSS VL: DIQMTQSPSSLSASVGDRVTITCRTSQSISSHLNWYQQKPGKAPKLLIYAASSLQPGVPSRFSGSGSGTDFTLTISSLQPEDFATYYCQQSYNTPPTFGGGTKVEIKR"
990,,no binding,,,no binding,1.73,no binding,28.3,9.6,,"SIGLEC-8-57 (antibody, human IgG1, kappa, V domains shown, tested as expressed and purified mAb) VH: EVQLLESGGGLVQPGGSLRLSCAASGFAFSRYAMSWVRQAPGKGLEWVSGISGSGGRTHYADSVKGRFTISRDNSKNTLYLQMNSLRAEDTAVYYCARQSRGGSLGMDVWGQGTLVTVSS VL: DIQMTQSPSSLSASVGDRVTITCRASQSISGYLNWYQQKPGKAPKLLIYGSSTLQSGVPSRFSGSGSGTDFTLTISSLQPEDFATYYCQQSYSPPWTFGGGTKVEIKR"
336,629,no binding,no binding,no binding,no binding,12.3,,,,,"SIGLEC-8-48 (antibody, human IgG1, kappa, V domains shown, tested as expressed and purified mAb) VH: EVQLLESGGGLVQPGGSLRLSCAASGFNFRSYAMSWVRQAPGKGLEWVSGISGSGGSAYYADSVKGRFTISRDNSKNTLYLQMNSLRAEDTAVYYCAREGYNWAVDYWGQGTLVTVSS VL: DIQMTQSPSSLSASVGDRVTITCRASQSISGFLNWYQQKPGKAPKLLIYGASILQSGVPSRFSGSGSGTDFTLTISSLQPEDFATYYCQQTYSTPRSFGGGTKVEIKR"
9.23,208,,,,no binding,1.95,,5.5,6.9,62.2,"SIGLEC-8-34 (antibody, human IgG1, kappa, V domains shown, tested as expressed and purified mAb) VH: EVQLLESGGGLVQPGGSLRLSCAASGFTFSRHAMGWVRQAPGKGLEWVSSISGSGYSTYYADSVKGRFTISRDNSKNTLYLQMNSLRAEDTAVYYCARENGQYYYGMDVWGQGTLVTVSS VL: DIQMTQSPSSLSASVGDRVTITCRASQTITTYLNWYQQKPGKAPKLLIYAASHLQTGVPSRFSGSGSGTDFTLTISSLQPEDFATYYCQQSYSTPLSFGGGTKVEIKR"
3.17,755,no binding,no binding,no binding,no binding,1.09,,,,,"SIGLEC-8-10 (antibody, human IgG1, kappa, V domains shown, tested as expressed and purified mAb) VH: EVQLLESGGGLVQPGGSLRLSCAASGFTFNNYAMAWVRQAPGKGLEWVSAISGSGSSPYYADSVKGRFTISRDNSKNTLYLQMNSLRAEDTAVYYCARDQIVAMDVWGQGTLVTVSS VL: not shown"
1.06,,no binding,,,no binding,0.527,no binding,19.9,12,,"SIGLEC-8-54 (antibody, human IgG1, kappa, V domains shown, tested as expressed and purified mAb) VH: EVQLLESGGGLVQPGGSLRLSCAASGFTFNNYAMAWVRQAPGKGLEWVSAISGSGSSPYYADSVKGRFTISRDNSKNTLYLQMNSLRAEDTAVYYCARDQIVAMDVWGQGTLVTVSS VL: DIQMTQSPSSLSASVGDRVTITCRGSQSISSYLNWYQQKPGKAPKLLIYDASSLQSGVPSRFSGSGSGTDFTLTISSLQPEDFATYYCQQSYRTPITFGGGTKVEIKR"
